Measured values reported in US20160115247A1, “SINGLE DOMAIN ANTIBODIES DIRECTED AGAINST INTRACELLULAR ANTIGENS” (SINGH BIOTECHNOLOGY, LLC, priority 2014, published 2016).
Several values for one entry are separate records, joined by “and”; a condition that tells them apart may be missing. Equal values may be shown once.

Assays:
MDA-MB-231 cells = assay: MTT proliferation assay, MDA-MB-231; assay type: cell-based, human;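 also: human cancer cells kept at 37 °C in humidified 5% CO2, with treated groups compared against a vehicle control group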
PANC-1 cells = assay: MTT proliferation assay, PANC-1; assay type: cell-based, human; conditions: for Mean Absorbance (570 nM) ± S.E.: single experiments 1-3
TNF-alpha = target: T1, TNF-alpha (Homo sapiens, UniProt P01375); assay: Inhibition of TNF-alpha cytotoxicity in U937 cells; assay type: cell-based; conditions: constant dose of TNF-alpha at EC50; for inhibition of killing of U937 by TNF-alpha (in words): FIG. 14
T1 construct: host or cells: added to U937 cells
T1 sequence (P01375 77-233 limits assumed): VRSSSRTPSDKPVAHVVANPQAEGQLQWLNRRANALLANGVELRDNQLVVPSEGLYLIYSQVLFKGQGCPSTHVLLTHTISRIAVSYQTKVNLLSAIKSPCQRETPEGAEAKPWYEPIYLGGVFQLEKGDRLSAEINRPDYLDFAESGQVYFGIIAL

B1: B.VHH14: anti-STAT3 single-domain antibody VHH14, SEQ ID NO. 4 (protein)
VHH: QVQLVESGGGSVQAGGSLRLSCVASTYTGCMGWFRQAPGKEREGVAALSSRGFAGHYTDSVKGRFSISRDYVKNAVYLQMNTVKPEDAAMYYCAAREGWECGETWLDRTAGGHTYWGQGTLVTVSS
modifications: camelid
- % Inhibition of cell proliferation (MDA-MB-231 cells; 3 days of treatment, 10.0 μg/ml): 23.1%
- % Inhibition of cell proliferation (MDA-MB-231 cells; 3 days of treatment, 100.0 μg/ml): 57.0%
- % Inhibition of cell proliferation (MDA-MB-231 cells; 5 days of treatment, 0.5 μg/ml): 0%
- % Inhibition of cell proliferation (MDA-MB-231 cells; 5 days of treatment, 1.0 μg/ml): 0%
- % Inhibition of cell proliferation (MDA-MB-231 cells; 5 days of treatment, 10.0 μg/ml): 5.5%
- % Inhibition of cell proliferation (MDA-MB-231 cells; 5 days of treatment, 100.0 μg/ml): 18.9%
- Mean Absorbance (570 nM) ± S.E. (MDA-MB-231 cells; Day 3 post treatment, 0.5 μg/ml): 0.666 ± 0.022
- Mean Absorbance (570 nM) ± S.E. (MDA-MB-231 cells; Day 3 post treatment, 1.0 μg/ml): 0.644 ± 0.045
- Mean Absorbance (570 nM) ± S.E. (MDA-MB-231 cells; Day 3 post treatment, 10.0 μg/ml): 0.456 ± 0.048
- Mean Absorbance (570 nM) ± S.E. (MDA-MB-231 cells; Day 3 post treatment, 100 μg/ml): 0.255 ± 0.005
- Mean Absorbance (570 nM) ± S.E. (MDA-MB-231 cells; Day 5 post treatment, 0.5 μg/ml): 0.733 ± 0.038
- Mean Absorbance (570 nM) ± S.E. (MDA-MB-231 cells; Day 5 post treatment, 1.0 μg/ml): 0.794 ± 0.023
- Mean Absorbance (570 nM) ± S.E. (MDA-MB-231 cells; Day 5 post treatment, 10.0 μg/ml): 0.640 ± 0.011
- Mean Absorbance (570 nM) ± S.E. (MDA-MB-231 cells; Day 5 post treatment, 100 μg/ml): 0.549 ± 0.023
- Mean Absorbance (570 nM) ± S.E., Overall Mean (MDA-MB-231 cells; Table 6, Day 3, 10.0 μg/ml): 0.504 ± 0.021
- Mean Absorbance (570 nM) ± S.E. (MDA-MB-231 cells; Table 6, Day 3, 10.0 μg/ml, single experiments 1-4): 0.456 ± 0.048 and 0.499 ± 0.018 and 0.502 ± 0.048 and 0.559 ± 0.041
- Mean Absorbance (570 nM) ± S.E., Overall Mean (MDA-MB-231 cells; Table 6, Day 3, 100 μg/ml): 0.302 ± 0.043
- Mean Absorbance (570 nM) ± S.E. (MDA-MB-231 cells; Table 6, Day 3, 100 μg/ml, single experiments 1-4): 0.255 ± 0.005 and 0.357 ± 0.019 and 0.308 ± 0.021 and 0.287 ± 0.021
- Mean Absorbance (570 nM) ± S.E., Overall Mean (MDA-MB-231 cells; Table 7, Day 5, 10.0 μg/ml): 0.688 ± 0.131
- Mean Absorbance (570 nM) ± S.E., Overall Mean (MDA-MB-231 cells; Table 7, Day 5, 100 μg/ml): 0.475 ± 0.0690
- Overall Average % Inhibition (MDA-MB-231 cells; post 3 days, 10.0 μg/ml): 26.2%
- Mean Growth Inhibition (MDA-MB-231 cells; post 3 days, 10.0 μg/ml, single experiments 1-4): 23.1% and 20.0% and 38.5% and 23.3%
- Overall Average % Inhibition (MDA-MB-231 cells; post 3 days, 100 μg/ml): 55.7%
- Mean Growth Inhibition (MDA-MB-231 cells; post 3 days, 100 μg/ml, single experiments 1-4): 57.0% and 42.8% and 62.3% and 60.6%
- Overall Average % Inhibition (MDA-MB-231 cells; post 5 days, 10.0 μg/ml): 14.9%
- Overall Average % Inhibition (MDA-MB-231 cells; post 5 days, 100 μg/ml): 38.6%

B2: H.VHH14: anti-STAT3 sdAb VHH14, SEQ ID NO. 4 (protein)
VHH: QVQLVESGGGSVQAGGSLRLSCVASTYTGCMGWFRQAPGKEREGVAALSSRGFAGHYTDSVKGRFSISRDYVKNAVYLQMNTVKPEDAAMYYCAAREGWECGETWLDRTAGGHTYWGQGTLVTVSS
modifications: camelid
- Mean Absorbance (570 nM) ± S.E., Overall Mean (PANC-1 cells; Day 3, 10.0 μg/ml): 1.089 ± 0.085
- Mean Absorbance (570 nM) ± S.E. (PANC-1 cells; Day 3, 10.0 μg/ml): 0.920 ± 0.133 and 1.183 ± 0.114 and 1.163 ± 0.044
- Mean Absorbance (570 nM) ± S.E., Overall Mean (PANC-1 cells; Day 3, 100 μg/ml): 0.906 ± 0.054
- Mean Absorbance (570 nM) ± S.E. (PANC-1 cells; Day 3, 100 μg/ml): 0.808 ± 0.239 and 0.993 ± 0.088 and 0.916 ± 0.088
- Mean Absorbance (570 nM) ± S.E., Overall Mean (PANC-1 cells; Day 5, 10.0 μg/ml): 1.368 ± 0.247
- Mean Absorbance (570 nM) ± S.E. (PANC-1 cells; Day 5, 10.0 μg/ml): 1.859 ± 0.033 and 1.165 ± 0.015 and 1.081 ± 0.103
- Mean Absorbance (570 nM) ± S.E., Overall Mean (PANC-1 cells; Day 5, 100 μg/ml): 0.754 ± 0.333

B3: anti-TNF-alpha VHH69: anti-TNF-alpha sdAb, SEQ ID NO. 46 (protein)
VHH: EVQLVESGGGSVLAGGSLRLSCVASGFTSRYNYMAWFRQAPGKEREGVATIGTASGSADYYGSVKDRFTISQDNAKNTVYLQMNSLKPEDTAMYYCAARTYGTISLTPSDYRYWGQGTLVTVSS
modifications: camelid
- IC50 (inhibition of TNF-alpha cytotoxicity against U937) (TNF-alpha): greater than 208.055 ug/ml
- inhibition of killing of U937 by TNF-alpha (in words) (TNF-alpha): inhibit killing of U937 by TNF-alpha

B4: anti-TNF-alpha VHH62: anti-TNF-alpha sdAb, SEQ ID NO. 47 (protein)
VHH: QVQLVESGGGPVQAGETLRLSCTASGFTFAEADMGWYRQAPGHECELVSTITTEGITSEASSYYADSVRGRFTISRDNAKNMVYLQMNSLKPEDTAVYYCAPDPYAYSTYSDYCSWAQGTQGTLVTVSS
modifications: camelid
- IC50 (inhibition of TNF-alpha cytotoxicity against U937) (TNF-alpha): approximately 713.6 ug/ml
- inhibition of killing of U937 by TNF-alpha (in words) (TNF-alpha): inhibit killing of U937 by TNF-alpha
